Data on 38 sequences can be found in the supplement of paper PMC7877785.

This data set is described as follows: self-splicing fitness, log relative to wild type (ln ratio); higher = more splicing; Tetrahymena group I intron in knt gene, E. coli kanamycin selection, DiMSum; sequences stand for … in CUCUCU…GGAGGGAAAAGUUAUCAGGCAUGCACCUGGUAGCUAGUCUUUAAACCAAUAGAUUGCAUCGGUUUAAAAGGCAAGACCGUCAAAUUGCGGGAAAGGGGUCAACAGCCGUUCAGUACCAAGUCUCAGGGGAAACUUUGAGAUGGCCUUGCAAAGGGUAUGGUAAUAAGCUGACGGACAUGGUCCUAACCACGCAGCCAAGUCCUAAGUCAACAGAUCUUCUGUUGAUAUGGAUGCAGUUCACAGACUAAAUGUCGGUCGGGGAAGAUGUAUUCUUCUCAUAAGAUAUAGUCGGACCUCUCCUUAAUGGGAGCUAGCGGAUGAAGUGAUGCAACACUGGAGCCGCUGGGAACUAAUUUGUAUGCGAAAGUAUAUUGAUUAGUUUUGGAGUACUCGUGGUCG
The essentials:
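DiMSum derived fitness as the error-weighted combination of fold changes across replicates, kanamycin versus no kanamycin, normalised to wild type. E. coli BL21(DE3) held the library, which randomised all eight P1ex-region intron nucleotides within the knt kanamycin-resistance gene on pET-22b(+). Six replicate transformations grew overnight at 37°C or 30°C on LB agar with or without 25 μg/mL kanamycin, also containing 100 μg/mL carbenicillin, 50 μM IPTG and 0.2% rhamnose, and pooled colonies were amplicon-sequenced on an Illumina HiSeq 2500.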

± gives the uncertainty stated by the source.

Take AACUAGCAAUAUUACGGUAA: the “self-splicing fitness (ln)” value by setting is: (30 °C) -1.49 ± 0.094; (37 °C) -0.267 ± 0.095.

ACAAAGCAAUAUUACGAGAC: the “self-splicing fitness (ln)” value reads like this: (30 °C) -3.61 ± 0.21; (37 °C) -2.57 ± 0.2.

For the sequence ACAUAGCAAUAUUACGAUGC, the “self-splicing fitness (ln)” value reads like this: (30 °C) -3.16 ± 0.15; (37 °C) -0.811 ± 0.12.

In the case of AUAUAGCAAUAUUACGUUGG, the “self-splicing fitness (ln)” value by setting is: (30 °C) -4.08 ± 0.42; (37 °C) -2.04 ± 0.26.

On to ACAUAGCAAUAUUACGACAG, for which the “self-splicing fitness (ln)” value is -1.46 ± 0.099 (30 °C) and -0.508 ± 0.11 (37 °C).

As to UACCAGCAAUAUUACGCAUA, the “self-splicing fitness (ln)” value runs as follows: (30 °C) -0.736 ± 0.072; (37 °C) 0.0861 ± 0.083.

Turning to AAUAAGCAAUAUUACGAUAC, the “self-splicing fitness (ln)” value (30 °C) is -2.25 ± 0.25 and the “self-splicing fitness (ln)” value (37 °C) is -1.44 ± 0.44.

Take AACCAGCAAUAUUACGAAGA: the “self-splicing fitness (ln)” value by setting is: (30 °C) -2.02 ± 0.081; (37 °C) -0.639 ± 0.082.

With GCUGAGCAAUAUUACGGACA, the “self-splicing fitness (ln)” value (30 °C) was -2.53 ± 0.2 and the “self-splicing fitness (ln)” value (37 °C) was -0.488 ± 0.17.

For CUUCAGCAAUAUUACGUCCG, the “self-splicing fitness (ln)” value reads like this: (30 °C) -0.583 ± 0.056; (37 °C) -0.437 ± 0.09.

As for UCGGAGCAAUAUUACGAACG, the “self-splicing fitness (ln)” value (37 °C) was -1.54 ± 0.35.

Regarding GAAAAGCAAUAUUACGCUGC, the “self-splicing fitness (ln)” value runs as follows: (30 °C) -3.12 ± 0.24; (37 °C) -1.61 ± 0.39.

For AGUUAGCAAUAUUACGGGUG, the “self-splicing fitness (ln)” value is, setting by setting: (30 °C) -3.86 ± 0.25; (37 °C) -1.64 ± 0.21.

As to CCUUAGCAAUAUUACGCGAG, the “self-splicing fitness (ln)” value was -4.2 ± 0.31 (30 °C) and -3.27 ± 0.28 (37 °C).

Consider CUAAAGCAAUAUUACGCAGG, for which the “self-splicing fitness (ln)” value is, setting by setting: (30 °C) -0.529 ± 0.12; (37 °C) -1.09 ± 0.19.

CAAGAGCAAUAUUACGGAAG: the “self-splicing fitness (ln)” value is -1.75 ± 0.13 (30 °C) and -1.31 ± 0.19 (37 °C).

As for AAGAAGCAAUAUUACGCUAU, the “self-splicing fitness (ln)” value (30 °C) was -3.04 ± 0.17 and the “self-splicing fitness (ln)” value (37 °C) was -1.44 ± 0.17.

For the sequence CAGUAGCAAUAUUACGAUCG, the “self-splicing fitness (ln)” value came to 0.0663 ± 0.15 (30 °C) and 0.475 ± 0.17 (37 °C).

As to CAGAAGCAAUAUUACGCGCG, the “self-splicing fitness (ln)” value was -0.373 ± 0.17 (30 °C) and 0.0448 ± 0.29 (37 °C).

Turning to UCGGAGCAAUAUUACGAUGU, the “self-splicing fitness (ln)” value (30 °C) is -2.81 ± 0.17 and the “self-splicing fitness (ln)” value (37 °C) was -1.2 ± 0.13.

As for CAGGAGCAAUAUUACGUUAG, the “self-splicing fitness (ln)” value is, setting by setting: (30 °C) -1.45 ± 0.084; (37 °C) -0.918 ± 0.12.

Turning to CGCUAGCAAUAUUACGGUGG, the “self-splicing fitness (ln)” value (30 °C) was -1.71 ± 0.12 and the “self-splicing fitness (ln)” value (37 °C) was -2.3 ± 0.17.

Regarding GUCUAGCAAUAUUACGUUGG, the “self-splicing fitness (ln)” value is, setting by setting: (30 °C) -3.01 ± 0.15; (37 °C) -1.86 ± 0.14.

In the case of GGUGAGCAAUAUUACGCUGC, the “self-splicing fitness (ln)” value by setting is: (30 °C) -3.91 ± 0.28; (37 °C) -2.65 ± 0.32.

UCUAAGCAAUAUUACGACUA: the “self-splicing fitness (ln)” value was -3.07 ± 0.25 (30 °C) and -0.59 ± 0.15 (37 °C).

As to GCAUAGCAAUAUUACGUCUC, the “self-splicing fitness (ln)” value reads like this: (30 °C) -1.85 ± 0.14; (37 °C) -0.552 ± 0.11.

With UCCCAGCAAUAUUACGCUAC, the “self-splicing fitness (ln)” value (37 °C) was -2.27 ± 0.32.

For the sequence UGUGAGCAAUAUUACGGUAC, the “self-splicing fitness (ln)” value was -3.38 ± 0.28 (30 °C) and -2.3 ± 0.29 (37 °C).

Consider CGUGAGCAAUAUUACGUCGU, for which the “self-splicing fitness (ln)” value (37 °C) is -2.72 ± 0.28.

In the case of UUGCAGCAAUAUUACGUCAU, the “self-splicing fitness (ln)” value by setting is: (30 °C) -2.15 ± 0.098; (37 °C) -1.13 ± 0.1.

As for UUCCAGCAAUAUUACGCUAU, the “self-splicing fitness (ln)” value by setting is: (30 °C) -2.04 ± 0.085; (37 °C) -0.605 ± 0.083.

AUGGAGCAAUAUUACGUACG: the “self-splicing fitness (ln)” value was -3.38 ± 0.47 (30 °C) and -2.58 ± 0.36 (37 °C).

For the sequence ACGUAGCAAUAUUACGUUUA, the “self-splicing fitness (ln)” value was -2.63 ± 0.15 (30 °C) and -2.73 ± 0.17 (37 °C).

As for GCUAAGCAAUAUUACGAAGU, the “self-splicing fitness (ln)” value runs as follows: (30 °C) -3.47 ± 0.17; (37 °C) -3.01 ± 0.34.

As for AGAAAGCAAUAUUACGGGAC, the “self-splicing fitness (ln)” value reads like this: (30 °C) -3.06 ± 0.26; (37 °C) -2 ± 0.32.

For UACCAGCAAUAUUACGCGAG, the “self-splicing fitness (ln)” value was -0.774 ± 0.049 (30 °C) and -0.168 ± 0.061 (37 °C).

On to UACGAGCAAUAUUACGUGAU, for which the “self-splicing fitness (ln)” value was -4.17 ± 0.21 (30 °C) and -2.45 ± 0.2 (37 °C).

Regarding AACUAGCAAUAUUACGGCCA, the “self-splicing fitness (ln)” value by setting is: (30 °C) -0.0639 ± 0.1; (37 °C) -0.69 ± 0.1.
